Measured values reported in patent US20170306005A1 (NASCIENT, published 2017).

Legend:
[1] = target: T1, mouse tenascin-C rCd4-His-FBG (rat; mouse, UniProt P05540 207-392, limits assumed); assay: SPR off-rate screen, captured IgG4 supernatant, 25 C
T1 construct: domain: domains 3 and 4; C-terminal FBG fusion; biotinylated in the ELISA screen; also called Mu TNC; mouse TNC rCd4-His-FBG; not shown: 6His tag
T1 sequence (chain (part 1 of 2)): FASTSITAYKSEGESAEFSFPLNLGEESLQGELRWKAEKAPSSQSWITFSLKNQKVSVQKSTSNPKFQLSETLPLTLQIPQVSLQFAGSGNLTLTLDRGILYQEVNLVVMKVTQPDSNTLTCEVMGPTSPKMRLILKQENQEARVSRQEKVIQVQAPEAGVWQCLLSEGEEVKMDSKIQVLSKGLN
T1 sequence (chain (part 2 of 2)): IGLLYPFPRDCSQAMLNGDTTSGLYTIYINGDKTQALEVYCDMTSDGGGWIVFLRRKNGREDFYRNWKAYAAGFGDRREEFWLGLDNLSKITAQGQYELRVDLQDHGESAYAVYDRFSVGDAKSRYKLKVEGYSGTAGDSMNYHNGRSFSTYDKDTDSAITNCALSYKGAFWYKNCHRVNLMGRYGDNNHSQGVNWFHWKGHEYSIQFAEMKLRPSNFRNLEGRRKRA
Method in brief: (§1)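 SPR at 25 °C: IgG4 (S241P) from culture supernatant, diluted 1:2 in 2×PBS-T, captured on anti-human Fc surface; antigen injected at a fixed 15 nM (human and mouse TNC rCd4-His-FBG) or 100 nM (human TNR rCd4-His-FBG), 30 μl/min. Association 1 min, dissociation 5 min; off-rates from reference-subtracted 1:1 fits.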

[2] = target: T2, human tenascin-C rCd4-His-FBG (rat; human, UniProt P05540 207-392, limits assumed); assay: as above
T2 construct: domain: domains 3 and 4; C-terminal FBG fusion; biotinylated in the ELISA and HTRF screens; also called Hu TNC; human TNC rCd4-His-FBG; not shown: 6His tag
T2 sequence (chain (part 1 of 2)): T1 sequence (chain (part 1 of 2))
T2 sequence (chain (part 2 of 2)): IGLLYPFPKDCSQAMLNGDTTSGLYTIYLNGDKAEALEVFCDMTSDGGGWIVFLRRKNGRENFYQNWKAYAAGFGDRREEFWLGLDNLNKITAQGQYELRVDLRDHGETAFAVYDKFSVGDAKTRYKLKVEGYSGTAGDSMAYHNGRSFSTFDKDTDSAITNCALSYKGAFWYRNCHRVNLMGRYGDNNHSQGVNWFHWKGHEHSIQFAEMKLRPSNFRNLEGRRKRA
Method in brief: as §1

[3] = target: T3, human tenascin-R rCd4-His-FBG (rat; human, UniProt P05540 207-392, limits assumed); assay: SPR off-rate screen, captured IgG4 supernatant, 25 C; off-rate screen, IgG4 in culture supernatant, 100 nM TNR antigen, 25 C
T3 construct: domain: domains 3 and 4; C-terminal FBG fusion; also called Hu TNR; human TNR rCd4-His-FBG; not shown: 6His tag
T3 sequence (chain (part 1 of 2)): T1 sequence (chain (part 1 of 2))
T3 sequence (chain (part 2 of 2)): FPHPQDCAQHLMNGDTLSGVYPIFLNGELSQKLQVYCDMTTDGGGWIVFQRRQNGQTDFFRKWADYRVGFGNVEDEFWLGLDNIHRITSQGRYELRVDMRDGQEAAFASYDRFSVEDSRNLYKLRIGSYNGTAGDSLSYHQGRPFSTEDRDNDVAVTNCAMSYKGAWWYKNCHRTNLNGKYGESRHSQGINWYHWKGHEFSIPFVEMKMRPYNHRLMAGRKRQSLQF
Experimental: The 31 scFv of interest were sub-cloned into a human IgG4 expression vector for generation of antibodies as human IgG4 with a hinge-stabilising mutation (S241P; Angal et al, 1993). […] Briefly, surface plasmon resonance (SPR) experiments were performed using a BIAcore T100 instrument and followed the protocol according to the Human antibody capture kit protocol (GE, BR-1008-39). For off-rate screening, 10,000 response units (RU) of anti-human Fc IgG (GE, BR-1008-39) was immobilised on flow-cells (FC1 and FC2) of a Series 5 CM5 dextran sensor chip (BR-1005-30) using EDC/NHS cross-linking chemistry according to the amine coupling kit protocol (GE, BR-1000-50). Culture supernatants containing expressed IgG4 were diluted 1:2 with 2×PBS-T and injected into FC2 (flowrate 5 μl/min, 60 s contact time) to enable antibody capture at 25° C. […] A fixed concentration of antigen (15 nM of human and mouse TNC rCd4-His-FBG and 100 nM of human TNR rCd4-His-FBG) was injected with a flow-path via FC 1 (reference flow cell) and FC 2 (antibody capture flow cell), with a flow rate of 30 μl/min, and the association and dissociation phases measured over 1 and 5 min time periods, respectively. […] Off rates were determined by reference cell subtraction and fitting the sensogram experimental data assuming a 1:1 interaction using BIAevaluation software (GE, BR-1005-97).

koff [1]: 3.3e-06 s⁻¹
koff [2]: < 1e-05 s⁻¹
koff [3]: 0.012 s⁻¹
B1: 165_13_C3 human IgG4 (antibody, V domains shown)
VH: QVQLVESGGGLVQPGRSLRLSCAASGFTFDDYAMHWVRQAPGKGLEWVSGISGSGGSTYYADSVKGRFTISRDNAKNSLYLQMNSLRAEDTALYYCAKSYQSDEDAFDIWGQGTMVTVSS
VL: DIQMTQSPASLPTPVGDRVTITCRASQYIQGFLNWYQQKPGKAPKLLIYDASNLETGVPSRFSGSGSGTDFTLTISSLQPEDFATYYCQQSYSTPQTFGQGTKVDIKR
notes: also called IgG4 C3; C3 IgG4 MAb
